Results as given in IntAct's records for PubMed 12023303.

B1: Transcription factor HY5-like (Arabidopsis thaliana (Mouse-ear cress)), Q8W191-1 (parent)
chain: MSLQRPNGNSSSSSSHKKHKTEESDEELLMVPDMEAAGSTCVLSSSADDGVNNPELDQTQNGVSTAKRRRGRNPVDKEYRSLKRLLRNRVSAQQARERKKVYVSDLESRANELQNNNDQLEEKISTLTNENTMLRKMLINTRPKTDDNH
partner: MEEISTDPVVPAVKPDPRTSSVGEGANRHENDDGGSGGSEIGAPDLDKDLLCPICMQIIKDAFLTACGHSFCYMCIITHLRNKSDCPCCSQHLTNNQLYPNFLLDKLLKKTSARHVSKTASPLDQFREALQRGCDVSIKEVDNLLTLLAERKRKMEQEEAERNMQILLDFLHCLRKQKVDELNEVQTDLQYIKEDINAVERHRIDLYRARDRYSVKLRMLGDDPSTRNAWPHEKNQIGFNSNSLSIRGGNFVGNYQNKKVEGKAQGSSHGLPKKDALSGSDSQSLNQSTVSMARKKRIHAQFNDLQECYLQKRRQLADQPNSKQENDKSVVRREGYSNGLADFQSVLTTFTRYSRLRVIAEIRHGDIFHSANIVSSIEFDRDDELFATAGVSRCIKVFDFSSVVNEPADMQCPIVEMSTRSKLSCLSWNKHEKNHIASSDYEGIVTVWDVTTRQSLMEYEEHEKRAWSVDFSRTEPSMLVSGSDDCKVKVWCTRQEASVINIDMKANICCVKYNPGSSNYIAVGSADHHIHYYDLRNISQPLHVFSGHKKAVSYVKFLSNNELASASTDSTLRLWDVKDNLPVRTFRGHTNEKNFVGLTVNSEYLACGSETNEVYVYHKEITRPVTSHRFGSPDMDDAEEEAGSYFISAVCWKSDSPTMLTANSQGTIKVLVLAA
B2: E3 ubiquitin-protein ligase COP1 (Arabidopsis thaliana (Mouse-ear cress)), P43254 (parent)
chain: B1 partner
partner: B1 chain

Variants of: B1
Conditions: with cop1_arath COP1, P43254

effect of a mutation on the interaction	Variant
decreasing interaction	V31A;P32A

Variants of: B2
Conditions: with HYH, Q8W191-1

Variant	effect of a mutation on the interaction
R465E	decreasing interaction
K550E	decreasing interaction
K422E	decreasing interaction

Results, then the variant that gave them:

effect of a mutation on the interaction	Variant
decreasing interaction	G524E
decreasing interaction	W467A
